Test results as given in patent US20200040059A1.
Each block holds one substance with its values, some of them ahead of it.

How the values were obtained:
[1] = biological target: PD-1 (Homo sapiens (Human)) (UniProt Q15116); test: flow cytometry, cells expressing PD-1; vs WT PD-L1 (IgV + IgC) Fc
[2] = biological target: PD-1 (Homo sapiens (Human)) (UniProt Q15116); test: flow cytometry, cells expressing PD-1
[3] = biological target: CD80 (Homo sapiens (Human)) (UniProt P33681); test: flow cytometry, cells expressing CD80
CD28 (human) [4] = biological target: CD28 (human) (UniProt P10747); test: flow cytometry on HEK293 cells transfected with CD28
CTLA4 (human) [5] = biological target: CTLA4 (human) (UniProt P16410); test: flow cytometry on HEK293 cells transfected with CTLA4
CTLA4 (human), sequence (P16410 36-223 limits assumed): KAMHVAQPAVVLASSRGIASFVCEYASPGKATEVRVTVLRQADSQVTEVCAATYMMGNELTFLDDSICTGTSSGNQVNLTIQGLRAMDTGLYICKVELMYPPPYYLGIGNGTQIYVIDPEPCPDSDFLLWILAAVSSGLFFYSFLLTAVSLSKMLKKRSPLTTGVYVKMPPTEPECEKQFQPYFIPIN

CTLA4 (human) [6] = biological target: CTLA4 (human) (UniProt P16410); test: flow cytometry, MFI on CTLA4 cells over MFI on CD28 cells
PD-L1 (human) [7] = biological target: PD-L1 (human) (UniProt Q9NZQ7); test: flow cytometry on HEK293 cells transfected with PD-L1
PD-L1 (human), sequence (Q9NZQ7 19-290 limits assumed): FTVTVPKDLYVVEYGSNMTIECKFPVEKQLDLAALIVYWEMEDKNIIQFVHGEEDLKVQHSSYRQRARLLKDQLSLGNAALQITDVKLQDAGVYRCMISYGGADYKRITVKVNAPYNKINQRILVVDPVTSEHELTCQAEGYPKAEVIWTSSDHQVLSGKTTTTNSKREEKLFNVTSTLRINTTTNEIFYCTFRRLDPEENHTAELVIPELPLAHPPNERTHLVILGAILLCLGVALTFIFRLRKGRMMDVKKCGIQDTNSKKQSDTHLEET

CTLA4 (human) [8] = biological target: CTLA4 (human) (UniProt P16410); test: flow cytometry, transfected cells
PD-L1 (human) [9] = biological target: PD-L1 (human) (UniProt Q9NZQ7); test: flow cytometry, transfected cells
CD28 (human) [10] = biological target: CD28 (human) (UniProt P10747); test: flow cytometry, transfected cells
human B7-H6 (human) [11] = biological target: human B7-H6 (human) (UniProt Q68D85); test: flow cytometry, transfected cells
human B7-H6 (human), sequence (Q68D85 25-454): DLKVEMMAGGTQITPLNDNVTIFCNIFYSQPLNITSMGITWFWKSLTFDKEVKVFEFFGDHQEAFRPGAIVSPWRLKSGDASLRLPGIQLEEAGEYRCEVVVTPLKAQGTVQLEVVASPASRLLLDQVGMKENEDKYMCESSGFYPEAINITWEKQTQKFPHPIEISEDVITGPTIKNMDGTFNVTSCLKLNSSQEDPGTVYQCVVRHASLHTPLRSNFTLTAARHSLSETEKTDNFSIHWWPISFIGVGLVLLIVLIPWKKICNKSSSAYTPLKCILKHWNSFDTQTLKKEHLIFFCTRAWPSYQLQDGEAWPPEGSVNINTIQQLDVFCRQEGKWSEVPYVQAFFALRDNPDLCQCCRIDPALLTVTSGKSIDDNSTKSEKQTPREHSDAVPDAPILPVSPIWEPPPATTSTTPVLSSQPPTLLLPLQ

human B7-H6 (human) [12] = biological target: human B7-H6 (human) (UniProt Q68D85); test: flow cytometry; MFI vs m10
[13] = biological target: human CD28, full-length, expressed on transfected Expi293 cells (human) (UniProt P10747); test: flow cytometry on CD28-expressing Expi293 cells
[14] = biological target: human B7-H6, full-length, expressed on transfected Expi293 cells (human) (UniProt Q68D85); test: flow cytometry on B7-H6-expressing Expi293 cells
human B7-H6, full-length, expressed on transfected Expi293 cells (human), sequence (Q68D85 25-454): as above

[15] = biological target: human ICOS, full-length, expressed on transfected Expi293 cells (human) (UniProt Q9Y6W8); test: flow cytometry on ICOS-expressing Expi293 cells
human ICOS, full-length, expressed on transfected Expi293 cells (human), sequence (Q9Y6W8 21-199 limits assumed): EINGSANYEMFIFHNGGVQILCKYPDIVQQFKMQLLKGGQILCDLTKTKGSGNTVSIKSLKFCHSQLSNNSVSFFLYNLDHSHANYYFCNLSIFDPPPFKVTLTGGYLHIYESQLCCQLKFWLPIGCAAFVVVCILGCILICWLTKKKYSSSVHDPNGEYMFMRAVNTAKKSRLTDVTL

[16] = biological target: T1, human CD226, full length, expressed on transfected Expi293 cells (human) (UniProt Q15762); test: flow cytometry, Expi293 cells transfected with full-length human CD226
T1 sequence: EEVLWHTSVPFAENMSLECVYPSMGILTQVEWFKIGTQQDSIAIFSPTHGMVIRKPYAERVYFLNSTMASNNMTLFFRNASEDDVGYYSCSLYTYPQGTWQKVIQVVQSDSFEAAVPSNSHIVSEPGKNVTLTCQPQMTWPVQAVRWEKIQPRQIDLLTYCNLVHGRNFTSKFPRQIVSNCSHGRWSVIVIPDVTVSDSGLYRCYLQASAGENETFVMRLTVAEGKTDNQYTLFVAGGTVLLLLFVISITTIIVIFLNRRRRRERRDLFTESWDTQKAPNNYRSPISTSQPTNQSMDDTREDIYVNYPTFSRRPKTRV

[17] = biological target: PD-1 (Homo sapiens (Human)) (UniProt Q15116); test: flow cytometry, Jurkat/PD-1 cells; vs wildtype PD-L2 IgV-Fc
[18] = biological target: PD-1 (Homo sapiens (Human)) (UniProt Q15116); test: flow cytometry, Jurkat/PD-1 cells
PD-1-Fc = test: Fortebio (BLI), PD-1-Fc
[19] = biological target: T2, CD96 (expressed on cells) (UniProt P40200); test: flow cytometry on cells expressing the target, 20 nM
T2 sequence (looked up): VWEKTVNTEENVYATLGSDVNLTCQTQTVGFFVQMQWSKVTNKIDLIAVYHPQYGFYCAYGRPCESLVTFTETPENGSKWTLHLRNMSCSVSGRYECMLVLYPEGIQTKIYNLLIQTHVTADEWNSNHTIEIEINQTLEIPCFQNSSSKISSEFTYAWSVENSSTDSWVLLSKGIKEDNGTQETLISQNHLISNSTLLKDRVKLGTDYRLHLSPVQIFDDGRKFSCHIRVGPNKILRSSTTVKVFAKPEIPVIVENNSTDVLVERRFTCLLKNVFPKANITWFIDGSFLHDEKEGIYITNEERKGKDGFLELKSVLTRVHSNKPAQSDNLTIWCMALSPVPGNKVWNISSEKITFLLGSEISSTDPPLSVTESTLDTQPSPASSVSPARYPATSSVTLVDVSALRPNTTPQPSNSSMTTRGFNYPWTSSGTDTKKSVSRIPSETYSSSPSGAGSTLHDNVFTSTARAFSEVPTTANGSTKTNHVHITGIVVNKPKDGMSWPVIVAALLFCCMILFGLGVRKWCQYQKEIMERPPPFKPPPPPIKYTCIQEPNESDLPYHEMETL

[20] = biological target: CD112R (full length, expressed on transfected cells) (human) (UniProt Q6DKI7); test: as above
CD112R (full length, expressed on transfected cells) (human), sequence (Q6DKI7 whole entry): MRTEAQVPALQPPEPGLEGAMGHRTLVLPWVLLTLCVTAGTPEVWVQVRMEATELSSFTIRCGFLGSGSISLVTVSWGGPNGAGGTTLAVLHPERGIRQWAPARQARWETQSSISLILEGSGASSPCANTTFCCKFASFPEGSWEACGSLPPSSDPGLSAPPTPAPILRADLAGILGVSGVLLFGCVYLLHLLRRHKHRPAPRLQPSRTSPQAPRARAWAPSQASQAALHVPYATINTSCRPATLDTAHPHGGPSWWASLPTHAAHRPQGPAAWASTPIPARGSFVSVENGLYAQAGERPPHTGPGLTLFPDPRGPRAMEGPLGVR

human B7-H6 (human) [21] = biological target: human B7-H6 (human) (UniProt Q68D85); test: flow cytometry; MFI vs m9
[22] = biological target: human CD112R, full length, expressed on transfected Expi293 cells (human) (UniProt Q6DKI7); test: flow cytometry, Expi293 cells transfected with full-length human CD112R
human CD112R, full length, expressed on transfected Expi293 cells (human), sequence (Q6DKI7 whole entry): as above

CD28 (human) [23] = biological target: CD28 (human) (UniProt P10747); test: flow cytometry; MFI vs m14
human B7-H6 (human) [24] = biological target: human B7-H6 (human) (UniProt Q68D85); test: flow cytometry; MFI vs m14
[25] = biological target: CD80 (Homo sapiens (Human)) (UniProt P33681); test: flow cytometry, cells expressing CD80; vs WT PD-L1 (IgV + IgC) Fc
Target sequence in this assay (P33681 35-288 limits assumed): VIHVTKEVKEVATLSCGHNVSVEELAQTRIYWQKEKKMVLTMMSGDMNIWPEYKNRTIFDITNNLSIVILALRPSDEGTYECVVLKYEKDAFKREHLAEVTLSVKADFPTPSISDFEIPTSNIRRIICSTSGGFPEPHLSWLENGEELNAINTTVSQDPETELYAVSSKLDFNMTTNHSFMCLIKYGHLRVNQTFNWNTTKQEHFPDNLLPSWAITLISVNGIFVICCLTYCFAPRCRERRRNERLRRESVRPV

PD-L1 (human) [26] = biological target: PD-L1 (human) (UniProt Q9NZQ7); test: flow cytometry; MFI vs m21
CD28 (human) [27] = biological target: CD28 (human) (UniProt P10747); test: flow cytometry; MFI vs m21
CTLA4 (human) [28] = biological target: CTLA4 (human) (UniProt P16410); test: flow cytometry; MFI vs m21
CD112R (human) = CD112R (human) (UniProt Q6DKI7); test: flow cytometry on CD112R-expressing cells
CD112R (human), sequence (Q6DKI7 whole entry): as the sequence (Q6DKI7 whole entry) above

CD96 = biological target: T3, CD96 (UniProt P40200); test: flow cytometry on CD96-expressing cells
T3 sequence (looked up): T2 sequence (looked up)

human ICOS (human) = test: flow cytometry, transfected cells
human ICOS (human), sequence (Q9Y6W8 whole entry): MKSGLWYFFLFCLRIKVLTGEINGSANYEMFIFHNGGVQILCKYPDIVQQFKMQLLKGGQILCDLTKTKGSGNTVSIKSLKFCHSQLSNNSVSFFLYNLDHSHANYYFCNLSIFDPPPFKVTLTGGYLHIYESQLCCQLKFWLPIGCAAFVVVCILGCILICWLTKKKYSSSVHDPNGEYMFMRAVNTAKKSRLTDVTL

CTLA4 (human) [29] = biological target: CTLA4 (human) (UniProt P16410); test: flow cytometry, transfected cells; column head doubtful
PD-L1 (human) [30] = biological target: PD-L1 (human) (UniProt Q9NZQ7); test: as above
TIGIT (human) = biological target: T4, TIGIT (human) (UniProt Q495A1); test: flow cytometry on TIGIT-expressing cells
T4 sequence: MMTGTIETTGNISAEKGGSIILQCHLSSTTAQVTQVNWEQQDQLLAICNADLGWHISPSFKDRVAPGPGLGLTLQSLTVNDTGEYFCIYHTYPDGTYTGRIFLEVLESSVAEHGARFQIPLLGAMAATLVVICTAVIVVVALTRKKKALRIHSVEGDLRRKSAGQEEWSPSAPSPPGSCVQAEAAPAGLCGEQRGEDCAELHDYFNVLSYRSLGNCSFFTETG

Domain 1: CD80 WT / Domain 2: CD80 WT / Fc (Fc fusion), sequence (chain): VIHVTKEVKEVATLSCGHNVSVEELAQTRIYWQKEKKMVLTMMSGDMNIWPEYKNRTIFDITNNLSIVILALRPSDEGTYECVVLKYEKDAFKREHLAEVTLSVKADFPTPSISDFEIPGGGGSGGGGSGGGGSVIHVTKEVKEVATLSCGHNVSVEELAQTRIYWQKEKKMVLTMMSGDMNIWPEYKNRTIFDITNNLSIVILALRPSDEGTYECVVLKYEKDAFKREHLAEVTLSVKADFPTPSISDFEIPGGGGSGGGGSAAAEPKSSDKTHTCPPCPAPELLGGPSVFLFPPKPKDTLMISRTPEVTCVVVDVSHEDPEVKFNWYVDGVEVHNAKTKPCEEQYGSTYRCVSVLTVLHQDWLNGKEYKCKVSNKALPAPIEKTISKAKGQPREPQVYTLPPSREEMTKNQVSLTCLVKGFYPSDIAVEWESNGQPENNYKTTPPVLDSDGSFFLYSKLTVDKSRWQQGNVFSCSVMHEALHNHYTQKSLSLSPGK
Domain 1: ICOSL WT / Domain 2: CD80 WT / Fc (Fc fusion), sequence (chain): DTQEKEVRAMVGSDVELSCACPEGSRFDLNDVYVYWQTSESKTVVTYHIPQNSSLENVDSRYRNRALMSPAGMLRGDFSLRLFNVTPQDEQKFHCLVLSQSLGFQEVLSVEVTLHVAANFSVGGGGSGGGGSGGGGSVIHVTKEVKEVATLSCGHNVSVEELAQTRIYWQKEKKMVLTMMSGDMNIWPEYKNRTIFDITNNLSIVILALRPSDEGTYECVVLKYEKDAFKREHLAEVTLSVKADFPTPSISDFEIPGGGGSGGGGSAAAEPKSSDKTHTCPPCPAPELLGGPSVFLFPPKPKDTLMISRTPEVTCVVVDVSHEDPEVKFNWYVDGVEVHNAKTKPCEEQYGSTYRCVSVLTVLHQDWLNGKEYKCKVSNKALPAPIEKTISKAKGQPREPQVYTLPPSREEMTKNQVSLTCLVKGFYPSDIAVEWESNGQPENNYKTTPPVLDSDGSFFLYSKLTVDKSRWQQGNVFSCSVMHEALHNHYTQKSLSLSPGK
PD-1 (Homo sapiens (Human)), sequence (Q15116 21-288 limits assumed, form in doubt): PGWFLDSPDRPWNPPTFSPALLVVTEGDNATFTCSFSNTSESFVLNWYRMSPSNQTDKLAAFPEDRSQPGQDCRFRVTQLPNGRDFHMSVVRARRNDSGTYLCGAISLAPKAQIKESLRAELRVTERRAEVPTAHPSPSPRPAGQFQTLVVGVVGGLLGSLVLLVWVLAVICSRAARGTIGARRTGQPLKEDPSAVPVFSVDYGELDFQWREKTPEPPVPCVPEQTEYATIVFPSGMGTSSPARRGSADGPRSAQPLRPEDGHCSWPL
Wildtype CD112-IgV Fc, sequence (Q92692 32-156 limits assumed): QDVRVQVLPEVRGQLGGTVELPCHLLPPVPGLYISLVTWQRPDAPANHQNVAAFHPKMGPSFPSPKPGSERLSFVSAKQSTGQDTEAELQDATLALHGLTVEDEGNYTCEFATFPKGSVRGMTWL
WT CD112 IgV Fc fusion, sequence (Q92692 32-156 limits assumed): as above

- Fold Change Compared to WT PD-L1 [1]: 0 fold
- MFI at 20 nM [2]: 69
- MFI at 20 nM [3]: 190
Substance: variant PD-L1 ECD-Fc I36T, I46V, D55G, M97L, K106E, K144E, T185A, R195G (Fc fusion)

- Fold change to WT (CD28 (human) [4]): 0.1 fold
- MFI at 66.6 nM (CD28 (human) [4]): 2600 MFI
- Fold change to WT (CTLA4 (human) [5]): 0 fold
- MFI at 66.6 nM (CTLA4 (human) [5]): 2230 MFI
- Ratio of CTLA4:CD28 (CTLA4 (human) [6]): 0.9
- MFI at 22.2 nM (PD-L1 (human) [7]): 5160 MFI
Substance: CD80 IgV-Fc I30T/L70R (Fc fusion)

- MFI (CTLA4 (human) [8]): 4700
- MFI (PD-L1 (human) [9]): 6300
- MFI (CD28 (human) [10]): 1630
Substance: Domain 1: CD80 WT / Domain 2: CD80 WT / Fc (Fc fusion)

- MFI (CD28 (human) [10]): 1690
- MFI (human B7-H6 (human) [11]): 14100
- WT parental MFI ratio (human B7-H6 (human) [12]): 1
Substance: Domain 1: NKp30 WT / Domain 2: CD86 WT / Fc (Fc fusion)

- MFI [13]: 7920 MFI
- MFI [14]: 118000 MFI
- WT parental MFI ratio (ratio to WT stack) [14]: 1
- MFI [15]: 70300 MFI
Substance: stacked Fc fusion, Domain 1: ICOSL WT / Domain 2: Nkp30 WT

- Fold Change Compared to WT PD-L1 [1]: 0 fold
- MFI at 20 nM [2]: 81
- MFI at 20 nM [3]: 149
Substance: variant PD-L1 ECD-Fc I36T, G52R, M97L, V112A, K144E, V175A, P198T (Fc fusion)

- MFI [16]: 51900 MFI
Substance: CD112 variant A95V, A112I IgV-Fc fusion (from UniProt Q92692 32-156)

- Fold increase over wildtype PD-L2 IgV-Fc [17]: 6.2 fold
- MFI at 50 nM [18]: 61000
- Fortebio binding to PD-1-Fc Response Units (Response Units) (PD-1-Fc): 1.45
Substance: variant PD-L2 IgV-Fc I13V, H15Q, T47A, Q82R, V89D (SEQ ID NO 1545) (Fc fusion)

- MFI at 20 nM [19]: 2500
- MFI at 20 nM [20]: 1660
Substance: WT CD112 IgV Fc fusion (from UniProt Q92692 32-156)

- WT parental MFI ratio (human B7-H6 (human) [21]): 1
- MFI (CD28 (human) [10]): 7020
- MFI (human B7-H6 (human) [11]): 88800
Substance: Domain 1: NKp30 WT / Domain 2: CD80 WT / Fc (Fc fusion)

- MFI [22]: 6540 MFI
Substance: CD112 variant S118Y IgV-Fc fusion (from UniProt Q92692 32-156)

- MFI (CD28 (human) [10]): 4340
- MFI (human B7-H6 (human) [11]): 55700
- WT parental MFI ratio (CD28 (human) [23]): 0.32
- WT parental MFI ratio (human B7-H6 (human) [24]): 0.5
Substance: Domain 1: CD80 (R29H/Y31H/T41G/Y87N/E88G/K89E/D90N/A91G/P109S) / Domain 2: NKp30 (L30V/A60V/S64P/S86G) / Fc (Fc fusion)

- Fold Change Compared to WT PD-L1 [25]: 96.3 fold
- MFI at 20 nM [3]: 12900
Substance: variant PD-L1 ECD-Fc K57R, S99G, F189L (from UniProt Q9NZQ7 19-239) (Fc fusion)

- WT parental MFI ratio (PD-L1 (human) [26]): 0.16
- WT parental MFI ratio (CD28 (human) [27]): 0.57
- MFI (PD-L1 (human) [9]): 995
- MFI (CD28 (human) [10]): 938
Substance: Domain 1: CD80 I67T/L70Q/A91G/T120S / Domain 2: CD80 E88D/K89R/D90K/A91G/F92Y/K93R / Fc (Fc fusion)

- Fold increase over wildtype PD-L2 IgV-Fc [17]: 0.19 fold
- MFI at 50 nM [18]: 1890
- Fortebio binding to PD-1-Fc Response Units (Response Units) (PD-1-Fc): -0.006
Substance: variant PD-L2 IgV-Fc H15Q, R76G, I85F (SEQ ID NO 1505) (Fc fusion)

- WT parental MFI ratio (CTLA4 (human) [28]): 0.42
- WT parental MFI ratio (PD-L1 (human) [26]): 0.31
- MFI (CTLA4 (human) [8]): 1990
- MFI (PD-L1 (human) [9]): 1930
Substance: Domain 1: CD80 R29V/Y31F/K36G/M38L/M43Q/E81R/V83I/L85I/K89R/D90L/A91E/F92N/K93Q/R94G / Domain 2: CD80 E88D/K89R/D90K/A91G/F92Y/K93R / Fc (Fc fusion)

- MFI (CD28 (human) [10]): 13700
- MFI (human B7-H6 (human) [11]): 110000
- WT parental MFI ratio (human B7-H6 (human) [24]): 1
Substance: Domain 1: CD80 WT / Domain 2: Nkp30 WT / Fc (Fc fusion)

- MFI at 100 nM (CD112R (human)): 4840 MFI
- MFI at 100 nM (CD96): 8540 MFI
Substance: Wildtype CD112-IgV Fc (from UniProt Q92692 32-156) (Fc fusion)

- MFI (PD-L1 (human) [9]): 2970
- MFI (human ICOS (human)): 14400
- MFI (CD28 (human) [10]): 3000
- MFI (CTLA4 (human) [29]): 14400
- MFI (PD-L1 (human) [30]): 3000
Substance: Domain 1: ICOSL WT / Domain 2: CD80 WT / Fc (Fc fusion)

- MFI 100 nM (TIGIT (human)): 4270 MFI
Substance: CD112 variant G82S, S118Y IgV-Fc (from UniProt Q92692 32-156) (Fc fusion)
